Consider one molecule from patent US20220073631A1.

The target of experiment [1] is hIL-4Rα-ECD (wild-type hIL-4Rα extracellular domain with C-terminus his-tag) (human) (UniProt P24394). The experiment is described as follows: SPR, Biacore T200, by the methods of Example 2; mean of three experiments. On the technique in general: SPR reads the build-up and loss of mass on a sensor chip optically.
Experiment [2] concerns the target human IL-4Rα (Shanghai Novoprotein Technology Co., Ltd) (human) (UniProt P24394). Put plainly: SPR, Biacore T200, antibody captured on protein A, antigen as analyte, 25 C, 1:1 model.

B1: Dupilumab (antibody, INN chains, looked up, V domains shown)
VH: EVQLVESGGGLEQPGGSLRLSCAGSGFTFRDYAMTWVRQAPGKGLEWVSSISGSGGNTYYADSVKGRFTISRDNSKNTLYLQMNSLRAEDTAVYYCAKDRLSITIRPRYYGLDVWGQGTTVTVSS
VL: DIVMTQSPLSLPVTPGEPASISCRSSQSLLYSIGYNYLDWYLQKSGQSPQLLIYLGSNRASGVPDRFSGSGSGTDFTLKISRVEAEDVGFYYCMQALQTPYTFGQGTKLEIKR
As a reminder, the Kd is the concentration at which binding is half-saturated. Lower therefore signals higher affinity. The term koff denotes a measure of how fast the partners let go of each other. Read a low koff as slow dissociation. A word on the kon: it is the rate constant with which the complex forms. Lower therefore signals slow association. Turning to B1, in experiment [1], the dissociation constant (Kd) turned out to be 0.0588 nM, the koff worked out at 4.29e-05 s⁻¹ and the on-rate (kon) stood at 707000 M⁻¹ s⁻¹. In experiment [2], this molecule had a Kd of 0.136 nM, a koff of 0.00011 s⁻¹ and a kon of 808000 M⁻¹ s⁻¹.
